Laboratory results reported in publication PMC10359499.
Blank lines part the entries; values can stand above or below the substance they belong to.

Key:
[1] = target: MS367 (PAS histidine kinase from Methylocella silvestris BL2) (Methylocella silvestris BL2); assay: SEC-MALS; PAS-HKs MS367 and RE356; mixtures, and monomer and dimer fractions purified separately and reinjected on Superdex 200 GL; HSEC buffer with 1 mM ATP; FPLC at 4 °C, MALS at 25 °C; n = 1
[2] = target: RE356 (PAS histidine kinase from Rhizobium etli CFN 42) (Rhizobium etli CFN 42); assay: as above
[3] = target: RH376 WT (LOV histidine kinase); assay: SEC-MALS; LOV-HKs and RH376 deletion mutants; ~15 μM sample (400 μl) with 1 mM ATP on Superdex 200 GL 10/300 in HSEC buffer (50 mM Hepes pH 7.5, 100 mM NaCl, 10 mM MgCl2, 0.5 mM DTT) with 1 mM ATP; dark (dim red light) and lit (blue LED) runs; FPLC at 4 °C, MALS and refractive index at 25 °C; n = 1; oligomeric state on a qualitative five-bin scale
[4] = target: RT349 (LOV histidine kinase from Rubellimicrobium thermophilum) (Rubellimicrobium thermophilum); assay: as above

stoichiometry N [1]: 2
Substance: MS367 (PAS histidine kinase from Methylocella silvestris BL2) (enzyme)

stoichiometry N [2]: 2
Substance: RE356 (PAS histidine kinase from Rhizobium etli CFN 42) (enzyme)

stoichiometry N [3]: 2
Substance: RH376 WT (LOV histidine kinase) (enzyme)

stoichiometry N [4]: 2
Substance: RT349 (LOV histidine kinase from Rubellimicrobium thermophilum) (enzyme)
